Results from paper PMC4351158 (Structure (London, England : 1993), 2015).

Target: the molecule itself
Test: crystal structure

B1: wild-type DegS (residues 27-355, without the membrane anchor) (enzyme, E. coli, UniProt P0AEE3 27-355, looked up)
chain: RSLNPLSTPQFDSTDETPASYNLAVRRAAPAVVNVYNRGLNTNSHNQLEIRTLGSGVIMDQRGYIITNKHVINDADQIIVALQDGRVFEALLVGSDSLTDLAVLKINATGGLPTIPINARRVPHIGDVVLAIGNPYNLGQTITQGIISATGRIGLNPTGRQNFLQTDASINHGNSGGALVNSLGELMGINTLSFDKSNDGETPEGIGFAIPFQLATKIMDKLIRDGRVIRGYIGIGGREIAPLHAQGGGIDQLQGIVVNEVSPDGPAANAGIQVNDLIISVDNKPAISALETMDQVAEIRPGSVIPVVVMRDDKQLTLQVTIQEYPATN
B1: binds.
